Test results from PMC7935256 (PLoS Pathogens, 2021).

Legend:
Experiment in all cases: BLI
Conditions in all cases: both partners purified
[1] = biological target: T1, DENV1 WestPac74 strain recombinant E protein ectodomain (residues 1-394) (dengue virus serotype 1, strain WestPac …)
T1 construct: also called DENV1 WestPac 74 rE protein; Western Pacific 1974

[2] = biological target: T2, DENV2 PVP94/07 strain recombinant E protein ectodomain (residues 1-394) (dengue virus serotype 2, strain PVP94/07)
T2 construct: also called DENV2 PVP94/07 rE protein

[3] = biological target: DENV2 NGC strain recombinant E protein ectodomain (residues 1-394) (dengue virus serotype 2, strain NGC)

B1: human monoclonal antibody (HMAb) 1C19, IgG (antibody, V domains shown)
VH: QVQLVESGGGVVQPGRSLRLSCAASGFIFSNYGMHWVRQAPGKGLEWVAVISYDGSDKRYADSVRGRFTISRDNSKNTLFLQVTSLRAEDTAVYYCAKELSGYDPGFEYWGQGTPVTVSS
VL: DIQMTQSPSTLSASVGDRVTITCRASQSINTWLAWYQQKPGKAPKLLIYKASSLESGVPSRFSGSGSGTEFTLTISSLQPDDFATYYCQQYESYATFGQGTKVDIK
notes: also called IgG 1C19
[1]
  Kd: 0.844 nM
[2]
  Kd: 19 nM
[3]
  Kd: 4.55 nM
